Measured values: the supplement of paper PMC9112550, “Optimization of the antimicrobial peptide Bac7 by deep mutational scanning” (BMC Biology, 2022)

What follows are sequences tested on Escherichia coli TOP10 (assay: shrunken log2 fold change of peptide-encoding DNA abundance (4.5 h post-induction vs induction); higher = less antimicrobial activity (less host growth inhibition)). Conditions: time post-induction: 4.5 h; library: site-saturation at positions 5, 18, 19, 20.
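Note: peptides expressed intracellularly from a pBAD plasmid library in pooled LB shake-flask culture, induced with 0.3% L-arabinose, DNA abundance read by NGS, three biological replicates, DESeq2 with apeglm shrinkage.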

Question: For RRIRIRPPRLPRPRPRPQKLPRP, which “shrunken log2 fold change” value is on record?
Answer: Its value is -0.277.

Question: How did the “shrunken log2 fold change” value turn out when RRIRIRPPRLPRPRPRPQLGPRP was run?
Answer: Its value is -0.0971.

Question: Which “shrunken log2 fold change” value does the source give for RRIRIRPPRLPRPRPRPQLMPRP here?
Answer: The value was -0.442.

Question: For RRIRIRPPRLPRPRPRPQPFPRP, which “shrunken log2 fold change” value is on record?
Answer: The value was -0.264.

Question: For RRIRIRPPRLPRPRPRPQQYPRP, which “shrunken log2 fold change” value is on record?
Answer: Its value is -0.808.

Question: For RRIRIRPPRLPRPRPRPQRYPRP, which “shrunken log2 fold change” value is on record?
Answer: The value was 0.159.

Question: How did the “shrunken log2 fold change” value turn out when RRIRIRPPRLPRPRPRPQSIPRP was run?
Answer: The value was -0.0763.

Question: For RRIRIRPPRLPRPRPRPQSWPRP, which “shrunken log2 fold change” value is on record?
Answer: The value was -0.0752.

Question: How did the “shrunken log2 fold change” value turn out when RRIRIRPPRLPRPRPRPQTCPRP was run?
Answer: Its value is -0.141.

Question: For RRIRIRPPRLPRPRPRPQWHPRP, which “shrunken log2 fold change” value is on record?
Answer: Its value is -0.381.

Question: How did the “shrunken log2 fold change” value turn out when RRIRIRPPRLPRPRPRPQYEPRP was run?
Answer: The value was -0.184.

Question: For RRIRIRPPRLPRPRPRPQYKPRP, which “shrunken log2 fold change” value is on record?
Answer: The value was -0.848.

Question: RRIRIRPPRLPRPRPRPRALPRP was tested. Which “shrunken log2 fold change” value did it give?
Answer: Its value is 0.0988.

Question: With RRIRIRPPRLPRPRPRPRASPRP as the sequence, how does the “shrunken log2 fold change” value read?
Answer: Its value is -0.195.

Question: RRIRIRPPRLPRPRPRPRCNPRP was tested. Which “shrunken log2 fold change” value did it give?
Answer: The value was -0.393.

Question: For RRIRIRPPRLPRPRPRPRDQPRP, which “shrunken log2 fold change” value is on record?
Answer: Its value is -0.0489.

Question: With RRIRIRPPRLPRPRPRPRDYPRP as the sequence, how does the “shrunken log2 fold change” value read?
Answer: The value was -0.14.

Question: For RRIRIRPPRLPRPRPRPRFIPRP, which “shrunken log2 fold change” value is on record?
Answer: The value was -0.636.

Question: Which “shrunken log2 fold change” value does the source give for RRIRIRPPRLPRPRPRPRFKPRP here?
Answer: The value was -0.575.

Question: With RRIRIRPPRLPRPRPRPRHQPRP as the sequence, how does the “shrunken log2 fold change” value read?
Answer: Its value is -0.289.

Question: For RRIRIRPPRLPRPRPRPRICPRP, which “shrunken log2 fold change” value is on record?
Answer: Its value is -0.3.

Question: How did the “shrunken log2 fold change” value turn out when RRIRIRPPRLPRPRPRPRIYPRP was run?
Answer: The value was 0.00994.

Question: For RRIRIRPPRLPRPRPRPRKKPRP, which “shrunken log2 fold change” value is on record?
Answer: Its value is 0.247.

Question: RRIRIRPPRLPRPRPRPRKRPRP was tested. Which “shrunken log2 fold change” value did it give?
Answer: Its value is 0.178.

Question: RRIRIRPPRLPRPRPRPRLYPRP was tested. Which “shrunken log2 fold change” value did it give?
Answer: The value was 0.0739.

Question: How did the “shrunken log2 fold change” value turn out when RRIRIRPPRLPRPRPRPRMCPRP was run?
Answer: The value was 0.242.

Question: RRIRIRPPRLPRPRPRPRMGPRP was tested. Which “shrunken log2 fold change” value did it give?
Answer: The value was -0.192.

Question: With RRIRIRPPRLPRPRPRPRMHPRP as the sequence, how does the “shrunken log2 fold change” value read?
Answer: Its value is -0.0356.

Question: Which “shrunken log2 fold change” value does the source give for RRIRIRPPRLPRPRPRPRNDPRP here?
Answer: The value was -0.543.

Question: Which “shrunken log2 fold change” value does the source give for RRIRIRPPRLPRPRPRPRPWPRP here?
Answer: The value was 0.154.

Question: With RRIRIRPPRLPRPRPRPRQGPRP as the sequence, how does the “shrunken log2 fold change” value read?
Answer: The value was 0.0734.

Question: Which “shrunken log2 fold change” value does the source give for RRIRIRPPRLPRPRPRPRRNPRP here?
Answer: The value was -0.0717.

Question: With RRIRIRPPRLPRPRPRPRRSPRP as the sequence, how does the “shrunken log2 fold change” value read?
Answer: The value was 0.347.

Question: Which “shrunken log2 fold change” value does the source give for RRIRIRPPRLPRPRPRPRTGPRP here?
Answer: The value was -0.0659.

Question: How did the “shrunken log2 fold change” value turn out when RRIRIRPPRLPRPRPRPRTQPRP was run?
Answer: Its value is 0.106.

Question: Which “shrunken log2 fold change” value does the source give for RRIRIRPPRLPRPRPRPRVHPRP here?
Answer: Its value is -0.0227.

Question: RRIRIRPPRLPRPRPRPRVIPRP was tested. Which “shrunken log2 fold change” value did it give?
Answer: The value was -0.209.

Question: RRIRIRPPRLPRPRPRPRWCPRP was tested. Which “shrunken log2 fold change” value did it give?
Answer: Its value is -0.11.

Question: Which “shrunken log2 fold change” value does the source give for RRIRIRPPRLPRPRPRPRWGPRP here?
Answer: The value was 0.181.

Question: Which “shrunken log2 fold change” value does the source give for RRIRIRPPRLPRPRPRPRWHPRP here?
Answer: Its value is 0.139.

Question: Which “shrunken log2 fold change” value does the source give for RRIRIRPPRLPRPRPRPRWNPRP here?
Answer: The value was -0.249.

Question: How did the “shrunken log2 fold change” value turn out when RRIRIRPPRLPRPRPRPRWSPRP was run?
Answer: Its value is 0.0458.

Question: With RRIRIRPPRLPRPRPRPRYLPRP as the sequence, how does the “shrunken log2 fold change” value read?
Answer: Its value is 0.0743.

Question: Which “shrunken log2 fold change” value does the source give for RRIRIRPPRLPRPRPRPRYQPRP here?
Answer: Its value is 0.00748.

Question: How did the “shrunken log2 fold change” value turn out when RRIRIRPPRLPRPRPRPSAGPRP was run?
Answer: Its value is -0.334.

Question: RRIRIRPPRLPRPRPRPSAMPRP was tested. Which “shrunken log2 fold change” value did it give?
Answer: The value was -0.349.

Question: RRIRIRPPRLPRPRPRPSCYPRP was tested. Which “shrunken log2 fold change” value did it give?
Answer: The value was -0.392.

Question: How did the “shrunken log2 fold change” value turn out when RRIRIRPPRLPRPRPRPSGGPRP was run?
Answer: Its value is 0.0858.

Question: RRIRIRPPRLPRPRPRPSGHPRP was tested. Which “shrunken log2 fold change” value did it give?
Answer: Its value is -0.397.

Question: RRIRIRPPRLPRPRPRPSGMPRP was tested. Which “shrunken log2 fold change” value did it give?
Answer: The value was -0.433.

Question: With RRIRIRPPRLPRPRPRPSGWPRP as the sequence, how does the “shrunken log2 fold change” value read?
Answer: Its value is 0.037.

Question: With RRIRIRPPRLPRPRPRPSHGPRP as the sequence, how does the “shrunken log2 fold change” value read?
Answer: Its value is 0.09.

Question: Which “shrunken log2 fold change” value does the source give for RRIRIRPPRLPRPRPRPSHVPRP here?
Answer: The value was -0.523.

Question: For RRIRIRPPRLPRPRPRPSIFPRP, which “shrunken log2 fold change” value is on record?
Answer: Its value is -0.764.

Question: Which “shrunken log2 fold change” value does the source give for RRIRIRPPRLPRPRPRPSIRPRP here?
Answer: The value was -0.212.

Question: How did the “shrunken log2 fold change” value turn out when RRIRIRPPRLPRPRPRPSKMPRP was run?
Answer: Its value is -1.18.

Question: How did the “shrunken log2 fold change” value turn out when RRIRIRPPRLPRPRPRPSLEPRP was run?
Answer: The value was -0.05.

Question: For RRIRIRPPRLPRPRPRPSMCPRP, which “shrunken log2 fold change” value is on record?
Answer: The value was -1.33.

Question: Which “shrunken log2 fold change” value does the source give for RRIRIRPPRLPRPRPRPSMQPRP here?
Answer: The value was -0.221.

Question: With RRIRIRPPRLPRPRPRPSMWPRP as the sequence, how does the “shrunken log2 fold change” value read?
Answer: The value was -0.178.

Question: With RRIRIRPPRLPRPRPRPSQPPRP as the sequence, how does the “shrunken log2 fold change” value read?
Answer: The value was 0.101.

Question: RRIRIRPPRLPRPRPRPSRQPRP was tested. Which “shrunken log2 fold change” value did it give?
Answer: Its value is -0.747.

Question: How did the “shrunken log2 fold change” value turn out when RRIRIRPPRLPRPRPRPSTCPRP was run?
Answer: The value was -0.548.

Question: With RRIRIRPPRLPRPRPRPSVQPRP as the sequence, how does the “shrunken log2 fold change” value read?
Answer: Its value is -0.51.

Question: For RRIRIRPPRLPRPRPRPSVRPRP, which “shrunken log2 fold change” value is on record?
Answer: The value was -0.238.

Question: For RRIRIRPPRLPRPRPRPSVTPRP, which “shrunken log2 fold change” value is on record?
Answer: Its value is -0.781.

Question: Which “shrunken log2 fold change” value does the source give for RRIRIRPPRLPRPRPRPSWLPRP here?
Answer: The value was -0.373.

Question: How did the “shrunken log2 fold change” value turn out when RRIRIRPPRLPRPRPRPSWPPRP was run?
Answer: The value was -0.227.

Question: Which “shrunken log2 fold change” value does the source give for RRIRIRPPRLPRPRPRPTAQPRP here?
Answer: Its value is 0.154.

Question: Which “shrunken log2 fold change” value does the source give for RRIRIRPPRLPRPRPRPTDCPRP here?
Answer: Its value is -0.196.

Question: Which “shrunken log2 fold change” value does the source give for RRIRIRPPRLPRPRPRPTEYPRP here?
Answer: The value was -0.251.

Question: How did the “shrunken log2 fold change” value turn out when RRIRIRPPRLPRPRPRPTGAPRP was run?
Answer: Its value is -0.0341.

Question: For RRIRIRPPRLPRPRPRPTGGPRP, which “shrunken log2 fold change” value is on record?
Answer: Its value is -0.00471.

Question: How did the “shrunken log2 fold change” value turn out when RRIRIRPPRLPRPRPRPTGHPRP was run?
Answer: The value was -0.116.

Question: For RRIRIRPPRLPRPRPRPTGKPRP, which “shrunken log2 fold change” value is on record?
Answer: Its value is -0.129.
